This note sets out measurements from US20200063100A1 (CRISPR THERAPEUTICS, published 2020).

The test addresses T1, biotinylated recombinant human BCMA (ACROS Cat# BC7-H82F0) (human, UniProt Q02223 1-54, biotinylated).
T1 construct: Bought reagent; also called biotinylated Human BCMA Protein, ACRO Biosystems; recombinant BCMA protein
T1 sequence (looked up): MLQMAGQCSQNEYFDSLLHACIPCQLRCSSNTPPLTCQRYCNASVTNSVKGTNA
Kind of test: flow cytometry, CAR T cells stained with biotinylated antigen. On the technique in general: In flow cytometry, cells or beads pass a laser one at a time.

B1: anti-BCMA CAR, expressed on gene-edited human T cells (other)
chain: QVQLVQSGAELKKPGASVKVSCKASGNTLTNYVIHWVRQAPGQRLEWMGYILPYNDLTKYSQKFQGRVTITRDKSASTAYMELSSLRSEDTAVYYCTRWDWDGFFDPWGQGTTVTVSSGGGGSGGGGSGGGGSEIVMTQSPATLSVSPGERASISCRASQSLVHSNGNTHLHWYQQRPGQAPRLLIYSVSNRFSEVPARFSGSGSGTDFTLTISSVESEDFAVYYCSQTSHIPYTFGGGTKLEIKSAAAFVPVFLPAKPTTTPAPRPPTPAPTIASQPLSLRPEACRPAAGGAVHTRGLDFACDIYIWAPLAGTCGVLLLSLVITLYCNHRNRKRGRKKLLYIFKQPFMRPVQTTQEEDGCSCRFPEEEEGGCELRVKFSRSADAPAYQQGQNQLYNELNLGRREEYDVLDKRRGRDPEMGGKPRRKNPQEGLYNELQKDKMAEAYSEIGMKGERRRGKGHDGLYQGLSTATKDTYDALHMQALPPR
notes: also called anti-BCMA (4-1BB co-stim) CAR
Take B1: the binding result is listed as “binds”.
